Measurements as given in the supplement of paper PMC10065799, “High-throughput profiling of sequence recognition by tyrosine kinases and SH2 domains using bacterial peptide display” (eLife, 2023).
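Further: 11-residue human phosphosite peptides and single-mutation variants displayed on the E. coli surface, counted by deep sequencing, each peptide's frequency after selection divided by its frequency in the unselected input library; frequency after pTyr selection over input frequency; kinase dosed for 20-30% of maximal phosphorylation in three min.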

What follows are sequences tested against Hck (UniProt P08631) (assay: phosphorylation enrichment, bacterial display (enrichment ratio); higher = better substrate or ligand; peptides without Tyr show the background).
Sequence of Hck (P08631 whole entry, looked up): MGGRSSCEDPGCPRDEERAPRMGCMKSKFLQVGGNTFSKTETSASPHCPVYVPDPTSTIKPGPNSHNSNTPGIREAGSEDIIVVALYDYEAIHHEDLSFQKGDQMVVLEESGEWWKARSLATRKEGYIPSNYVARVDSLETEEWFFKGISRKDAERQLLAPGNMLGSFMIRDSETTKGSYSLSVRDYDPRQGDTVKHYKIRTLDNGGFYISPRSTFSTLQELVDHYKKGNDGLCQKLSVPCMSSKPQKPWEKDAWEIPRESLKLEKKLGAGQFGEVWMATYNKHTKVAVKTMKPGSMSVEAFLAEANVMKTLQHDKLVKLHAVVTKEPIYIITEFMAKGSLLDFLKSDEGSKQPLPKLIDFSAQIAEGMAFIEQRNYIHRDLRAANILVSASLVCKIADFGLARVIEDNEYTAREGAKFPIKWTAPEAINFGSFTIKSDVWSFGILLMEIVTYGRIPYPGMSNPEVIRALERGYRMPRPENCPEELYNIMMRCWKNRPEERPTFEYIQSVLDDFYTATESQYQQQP
KKCTRYIDCAL [ASPA_Y64_D68A] gave a phosphorylation enrichment of 0.356. In the case of ESMQSYDLDFP [UNC13B_Y243_D238E_YF], the phosphorylation enrichment is reported as 0.46. Sequence DSFSSYCNAVA [SLC20A2_Y436_YF] has a phosphorylation enrichment of 0.544. With FTAVGYHKHIT [NOMO1_Y1137] the phosphorylation enrichment was 0.482. Work on RFLERYIFNRE [HLA-DPB1_Y57_YF] yielded a phosphorylation enrichment of 0.44. With VEYAKYGSLRG [RET_Y809] the phosphorylation enrichment was 0.758. In the case of SRVNKYSTAFG [GJB3_Y16_G12R], the phosphorylation enrichment is reported as 0.344. HKDNNYVSMWF [PAPOLG_Y432] showed a phosphorylation enrichment of 0.636. Sequence VCRHNYGVVES [HLA-DRB1_Y112_Y107V] has a phosphorylation enrichment of 0.484. Sequence FLTSSYINIST [IL23R_Y178_YF] has a phosphorylation enrichment of 0.422. HNLDFYKMTTN [FGFR3_Y648_K650M_YF] showed a phosphorylation enrichment of 1.67. RDVEQYVNNVN [PCDH19_Y1097_L1094V] gave a phosphorylation enrichment of 0.645. RLDRSYSFSFS [PEAR1_Y890_YF] gave a phosphorylation enrichment of 0.791. Sequence ETESPYQELQG [TYROBP_Y91] has a phosphorylation enrichment of 0.9. With SGGGSYGSGGG [KRT1_Y539] the phosphorylation enrichment was 0.346. Work on QMVRMYASSFM [AVPR2_Y124_G122R_YF] yielded a phosphorylation enrichment of 0.425. With TKQLTYEEQYL [PIK3C3_Y310_D314Y] the phosphorylation enrichment was 0.524. Sequence QAKRKYQEVSK [FES_Y156_A159V] has a phosphorylation enrichment of 0.373. Sequence GKTQQYDCKWF [BCR_Y751_YF] has a phosphorylation enrichment of 0.425. HVPEEYKPKQG [SAXO2_Y37] gave a phosphorylation enrichment of 0.62. With IATTIYSGDKI [UGGT2_Y823_A821T] the phosphorylation enrichment was 0.791. For LLSVAYKNVVR [YWHAZ_Y48_G53R], the phosphorylation enrichment was 0.477. Work on GREAEYSDKHG [EPHB4_Y574] yielded a phosphorylation enrichment of 0.354. Sequence VAMDDYLKNVM [LRRK2_Y707] has a phosphorylation enrichment of 0.418. With LVSCTYQLARR [FGFR2_Y608_G613R] the phosphorylation enrichment was 0.891. In the case of MPPHICAITDT [MYH9_Y151_Y151C], the phosphorylation enrichment is reported as 0.538. In the case of NLMPAYFKCIQ [CYP21A2_Y190_YF], the phosphorylation enrichment is reported as 0.61. FGSLLYKYAFK [FANCD2_Y458] was tested, and the phosphorylation enrichment was 0.379. Sequence IYETDYYQKGG [INSR_Y1189_R1191Q] has a phosphorylation enrichment of 1.37. DENWFYTRAAS [RPS19_Y54] showed a phosphorylation enrichment of 0.382. Work on LKVKAYRFSIS [LCT_Y974] yielded a phosphorylation enrichment of 0.6. In the case of LWQSIYNLDAE [TNNT2_Y251_E254D], the phosphorylation enrichment is reported as 6.38. For GGTPLYMDRQG [AGXT_Y194], the phosphorylation enrichment was 1.26.

Each sequence was assayed against Jak2 (UniProt O60674) in the same assay as above.
Sequence of Jak2 (O60674 whole entry, looked up): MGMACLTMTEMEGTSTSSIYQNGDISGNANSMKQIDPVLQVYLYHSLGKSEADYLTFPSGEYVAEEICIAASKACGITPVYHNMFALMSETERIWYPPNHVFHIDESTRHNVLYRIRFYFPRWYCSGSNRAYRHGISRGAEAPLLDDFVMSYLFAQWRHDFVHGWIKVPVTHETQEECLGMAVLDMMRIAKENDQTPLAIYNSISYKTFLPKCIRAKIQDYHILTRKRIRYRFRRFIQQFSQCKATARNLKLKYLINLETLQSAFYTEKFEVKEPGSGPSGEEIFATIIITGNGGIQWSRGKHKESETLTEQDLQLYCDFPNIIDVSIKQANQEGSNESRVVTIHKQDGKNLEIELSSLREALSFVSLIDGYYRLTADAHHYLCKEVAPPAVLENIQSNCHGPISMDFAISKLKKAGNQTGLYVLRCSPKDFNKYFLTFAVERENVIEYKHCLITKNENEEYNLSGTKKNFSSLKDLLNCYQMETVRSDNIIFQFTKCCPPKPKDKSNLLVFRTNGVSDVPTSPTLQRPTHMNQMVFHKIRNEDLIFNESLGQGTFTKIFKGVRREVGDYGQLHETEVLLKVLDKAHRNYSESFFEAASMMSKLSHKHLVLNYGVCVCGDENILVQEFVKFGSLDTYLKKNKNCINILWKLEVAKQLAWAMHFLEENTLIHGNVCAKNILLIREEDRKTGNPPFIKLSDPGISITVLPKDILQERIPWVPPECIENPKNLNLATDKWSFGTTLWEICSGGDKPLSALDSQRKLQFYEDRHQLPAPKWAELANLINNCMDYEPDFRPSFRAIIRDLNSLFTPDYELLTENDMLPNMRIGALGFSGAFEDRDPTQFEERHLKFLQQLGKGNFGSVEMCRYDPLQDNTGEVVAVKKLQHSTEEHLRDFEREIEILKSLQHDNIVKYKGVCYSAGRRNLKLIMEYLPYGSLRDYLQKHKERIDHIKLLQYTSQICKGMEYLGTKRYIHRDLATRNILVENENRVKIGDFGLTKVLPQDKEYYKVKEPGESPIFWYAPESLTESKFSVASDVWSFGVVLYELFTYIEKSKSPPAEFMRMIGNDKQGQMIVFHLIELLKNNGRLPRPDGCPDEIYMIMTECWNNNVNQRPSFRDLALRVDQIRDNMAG
KKCTRYIDCAL [ASPA_Y64_D68A] was tested, and the phosphorylation enrichment was 0.595. Sequence ESMQSYDLDFP [UNC13B_Y243_D238E_YF] has a phosphorylation enrichment of 0.777. For DSFSSYCNAVA [SLC20A2_Y436_YF], the phosphorylation enrichment was 1.06. FTAVGYHKHIT [NOMO1_Y1137] was tested, and the phosphorylation enrichment was 0.524. Work on RFLERYIFNRE [HLA-DPB1_Y57_YF] yielded a phosphorylation enrichment of 0.748. VEYAKYGSLRG [RET_Y809] was tested, and the phosphorylation enrichment was 0.335. Work on SRVNKYSTAFG [GJB3_Y16_G12R] yielded a phosphorylation enrichment of 0.644. Work on HKDNNYVSMWF [PAPOLG_Y432] yielded a phosphorylation enrichment of 1.01. For VCRHNYGVVES [HLA-DRB1_Y112_Y107V], the phosphorylation enrichment was 0.659. FLTSSYINIST [IL23R_Y178_YF] showed a phosphorylation enrichment of 1.34. Sequence HNLDFYKMTTN [FGFR3_Y648_K650M_YF] has a phosphorylation enrichment of 1.25. Work on RDVEQYVNNVN [PCDH19_Y1097_L1094V] yielded a phosphorylation enrichment of 0.855. RLDRSYSFSFS [PEAR1_Y890_YF] showed a phosphorylation enrichment of 0.816. ETESPYQELQG [TYROBP_Y91] was tested, and the phosphorylation enrichment was 1.3. Work on SGGGSYGSGGG [KRT1_Y539] yielded a phosphorylation enrichment of 0.599. QMVRMYASSFM [AVPR2_Y124_G122R_YF] gave a phosphorylation enrichment of 0.769. With TKQLTYEEQYL [PIK3C3_Y310_D314Y] the phosphorylation enrichment was 1.37. Work on QAKRKYQEVSK [FES_Y156_A159V] yielded a phosphorylation enrichment of 0.227. In the case of GKTQQYDCKWF [BCR_Y751_YF], the phosphorylation enrichment is reported as 0.927. In the case of HVPEEYKPKQG [SAXO2_Y37], the phosphorylation enrichment is reported as 0.867. For IATTIYSGDKI [UGGT2_Y823_A821T], the phosphorylation enrichment was 0.701. LLSVAYKNVVR [YWHAZ_Y48_G53R] was tested, and the phosphorylation enrichment was 1.1. Work on GREAEYSDKHG [EPHB4_Y574] yielded a phosphorylation enrichment of 0.582. In the case of VAMDDYLKNVM [LRRK2_Y707], the phosphorylation enrichment is reported as 0.831. Sequence LVSCTYQLARR [FGFR2_Y608_G613R] has a phosphorylation enrichment of 1.36. MPPHICAITDT [MYH9_Y151_Y151C] gave a phosphorylation enrichment of 0.981. For NLMPAYFKCIQ [CYP21A2_Y190_YF], the phosphorylation enrichment was 1.61. Work on FGSLLYKYAFK [FANCD2_Y458] yielded a phosphorylation enrichment of 0.858. With IYETDYYQKGG [INSR_Y1189_R1191Q] the phosphorylation enrichment was 0.819. DENWFYTRAAS [RPS19_Y54] showed a phosphorylation enrichment of 1.11. For LKVKAYRFSIS [LCT_Y974], the phosphorylation enrichment was 1.3. In the case of LWQSIYNLDAE [TNNT2_Y251_E254D], the phosphorylation enrichment is reported as 0.981. With GGTPLYMDRQG [AGXT_Y194] the phosphorylation enrichment was 0.513.

Each sequence was assayed against MERTK (UniProt Q12866) in the same assay as above.
Sequence of MERTK (Q12866 whole entry, looked up): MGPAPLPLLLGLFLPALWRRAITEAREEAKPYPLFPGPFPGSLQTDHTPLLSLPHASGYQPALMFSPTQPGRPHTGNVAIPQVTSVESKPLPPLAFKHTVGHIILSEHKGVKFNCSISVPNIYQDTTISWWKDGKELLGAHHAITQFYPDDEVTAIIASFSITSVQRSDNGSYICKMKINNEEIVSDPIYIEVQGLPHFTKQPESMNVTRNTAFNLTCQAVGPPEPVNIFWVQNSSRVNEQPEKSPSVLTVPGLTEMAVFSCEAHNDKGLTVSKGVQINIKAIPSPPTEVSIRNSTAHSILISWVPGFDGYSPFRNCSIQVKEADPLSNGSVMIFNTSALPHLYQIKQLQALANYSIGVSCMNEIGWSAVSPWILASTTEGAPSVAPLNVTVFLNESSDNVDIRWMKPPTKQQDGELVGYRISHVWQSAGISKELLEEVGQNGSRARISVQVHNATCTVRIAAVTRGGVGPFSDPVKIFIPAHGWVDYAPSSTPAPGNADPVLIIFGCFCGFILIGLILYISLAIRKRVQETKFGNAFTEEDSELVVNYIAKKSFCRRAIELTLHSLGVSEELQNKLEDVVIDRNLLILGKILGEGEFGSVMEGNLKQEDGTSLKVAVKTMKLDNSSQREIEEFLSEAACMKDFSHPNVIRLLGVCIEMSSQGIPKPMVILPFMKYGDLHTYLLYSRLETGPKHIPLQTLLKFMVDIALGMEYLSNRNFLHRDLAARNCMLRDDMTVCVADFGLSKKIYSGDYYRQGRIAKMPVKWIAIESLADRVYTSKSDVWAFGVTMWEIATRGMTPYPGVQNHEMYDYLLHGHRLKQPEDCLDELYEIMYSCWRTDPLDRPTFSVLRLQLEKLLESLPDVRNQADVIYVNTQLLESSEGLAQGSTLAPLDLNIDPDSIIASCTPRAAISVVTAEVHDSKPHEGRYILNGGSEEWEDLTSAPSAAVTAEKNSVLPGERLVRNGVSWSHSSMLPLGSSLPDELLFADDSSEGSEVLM
For KKCTRYIDCAL [ASPA_Y64_D68A], the phosphorylation enrichment was 0.338. For ESMQSYDLDFP [UNC13B_Y243_D238E_YF], the phosphorylation enrichment was 0.441. DSFSSYCNAVA [SLC20A2_Y436_YF] was tested, and the phosphorylation enrichment was 0.503. Sequence FTAVGYHKHIT [NOMO1_Y1137] has a phosphorylation enrichment of 0.33. RFLERYIFNRE [HLA-DPB1_Y57_YF] was tested, and the phosphorylation enrichment was 0.409. Work on VEYAKYGSLRG [RET_Y809] yielded a phosphorylation enrichment of 0.473. Sequence SRVNKYSTAFG [GJB3_Y16_G12R] has a phosphorylation enrichment of 0.406. Work on HKDNNYVSMWF [PAPOLG_Y432] yielded a phosphorylation enrichment of 1.5. VCRHNYGVVES [HLA-DRB1_Y112_Y107V] was tested, and the phosphorylation enrichment was 0.484. FLTSSYINIST [IL23R_Y178_YF] was tested, and the phosphorylation enrichment was 0.47. Work on HNLDFYKMTTN [FGFR3_Y648_K650M_YF] yielded a phosphorylation enrichment of 0.783. RDVEQYVNNVN [PCDH19_Y1097_L1094V] showed a phosphorylation enrichment of 0.522. RLDRSYSFSFS [PEAR1_Y890_YF] was tested, and the phosphorylation enrichment was 0.62. ETESPYQELQG [TYROBP_Y91] showed a phosphorylation enrichment of 0.669. Work on SGGGSYGSGGG [KRT1_Y539] yielded a phosphorylation enrichment of 0.349. In the case of QMVRMYASSFM [AVPR2_Y124_G122R_YF], the phosphorylation enrichment is reported as 0.544. For TKQLTYEEQYL [PIK3C3_Y310_D314Y], the phosphorylation enrichment was 0.593. For QAKRKYQEVSK [FES_Y156_A159V], the phosphorylation enrichment was 0.311. GKTQQYDCKWF [BCR_Y751_YF] gave a phosphorylation enrichment of 0.451. HVPEEYKPKQG [SAXO2_Y37] gave a phosphorylation enrichment of 0.423. IATTIYSGDKI [UGGT2_Y823_A821T] was tested, and the phosphorylation enrichment was 0.507. LLSVAYKNVVR [YWHAZ_Y48_G53R] gave a phosphorylation enrichment of 0.689. With GREAEYSDKHG [EPHB4_Y574] the phosphorylation enrichment was 0.39. Sequence VAMDDYLKNVM [LRRK2_Y707] has a phosphorylation enrichment of 0.51. LVSCTYQLARR [FGFR2_Y608_G613R] showed a phosphorylation enrichment of 0.861. Work on MPPHICAITDT [MYH9_Y151_Y151C] yielded a phosphorylation enrichment of 0.473. With NLMPAYFKCIQ [CYP21A2_Y190_YF] the phosphorylation enrichment was 0.539. FGSLLYKYAFK [FANCD2_Y458] showed a phosphorylation enrichment of 0.433. With IYETDYYQKGG [INSR_Y1189_R1191Q] the phosphorylation enrichment was 4.71. DENWFYTRAAS [RPS19_Y54] was tested, and the phosphorylation enrichment was 0.401. LKVKAYRFSIS [LCT_Y974] gave a phosphorylation enrichment of 0.493. With LWQSIYNLDAE [TNNT2_Y251_E254D] the phosphorylation enrichment was 0.497. GGTPLYMDRQG [AGXT_Y194] gave a phosphorylation enrichment of 0.409.

What follows are sequences tested on c-Abl (mouse) in the same assay as above.
KKCTRYIDCAL [ASPA_Y64_D68A] showed a phosphorylation enrichment of 0.55. With ESMQSYDLDFP [UNC13B_Y243_D238E_YF] the phosphorylation enrichment was 0.538. In the case of DSFSSYCNAVA [SLC20A2_Y436_YF], the phosphorylation enrichment is reported as 0.801. In the case of FTAVGYHKHIT [NOMO1_Y1137], the phosphorylation enrichment is reported as 0.569. RFLERYIFNRE [HLA-DPB1_Y57_YF] was tested, and the phosphorylation enrichment was 0.627. In the case of VEYAKYGSLRG [RET_Y809], the phosphorylation enrichment is reported as 0.824. In the case of SRVNKYSTAFG [GJB3_Y16_G12R], the phosphorylation enrichment is reported as 0.584. HKDNNYVSMWF [PAPOLG_Y432] gave a phosphorylation enrichment of 0.654. In the case of VCRHNYGVVES [HLA-DRB1_Y112_Y107V], the phosphorylation enrichment is reported as 0.543. For FLTSSYINIST [IL23R_Y178_YF], the phosphorylation enrichment was 0.498. HNLDFYKMTTN [FGFR3_Y648_K650M_YF] was tested, and the phosphorylation enrichment was 0.954. Sequence RDVEQYVNNVN [PCDH19_Y1097_L1094V] has a phosphorylation enrichment of 1.02. In the case of RLDRSYSFSFS [PEAR1_Y890_YF], the phosphorylation enrichment is reported as 0.593. ETESPYQELQG [TYROBP_Y91] showed a phosphorylation enrichment of 0.83. In the case of SGGGSYGSGGG [KRT1_Y539], the phosphorylation enrichment is reported as 0.512. Work on QMVRMYASSFM [AVPR2_Y124_G122R_YF] yielded a phosphorylation enrichment of 0.745. TKQLTYEEQYL [PIK3C3_Y310_D314Y] showed a phosphorylation enrichment of 0.825. QAKRKYQEVSK [FES_Y156_A159V] was tested, and the phosphorylation enrichment was 0.326. For GKTQQYDCKWF [BCR_Y751_YF], the phosphorylation enrichment was 0.748. In the case of HVPEEYKPKQG [SAXO2_Y37], the phosphorylation enrichment is reported as 0.943. Work on IATTIYSGDKI [UGGT2_Y823_A821T] yielded a phosphorylation enrichment of 0.778. LLSVAYKNVVR [YWHAZ_Y48_G53R] was tested, and the phosphorylation enrichment was 1.2. GREAEYSDKHG [EPHB4_Y574] showed a phosphorylation enrichment of 0.571. VAMDDYLKNVM [LRRK2_Y707] was tested, and the phosphorylation enrichment was 0.659. With LVSCTYQLARR [FGFR2_Y608_G613R] the phosphorylation enrichment was 0.721. For MPPHICAITDT [MYH9_Y151_Y151C], the phosphorylation enrichment was 1.34. Sequence NLMPAYFKCIQ [CYP21A2_Y190_YF] has a phosphorylation enrichment of 1.09. For FGSLLYKYAFK [FANCD2_Y458], the phosphorylation enrichment was 0.627. Sequence IYETDYYQKGG [INSR_Y1189_R1191Q] has a phosphorylation enrichment of 0.629. DENWFYTRAAS [RPS19_Y54] gave a phosphorylation enrichment of 1.34. LKVKAYRFSIS [LCT_Y974] was tested, and the phosphorylation enrichment was 0.824. In the case of LWQSIYNLDAE [TNNT2_Y251_E254D], the phosphorylation enrichment is reported as 0.706. For GGTPLYMDRQG [AGXT_Y194], the phosphorylation enrichment was 0.499.
